The source of these data is PMC3167633.

In general, Kd refers to the equilibrium constant for the complex coming apart. A higher Kd goes with a looser complex.

Residue numbers refer to the chain shown, from its start.

The target of this data set is T1, Haa1(DBD)-His6 (Saccharomyces cerevisiae, UniProt Q12753 1-123).
T1 sequence: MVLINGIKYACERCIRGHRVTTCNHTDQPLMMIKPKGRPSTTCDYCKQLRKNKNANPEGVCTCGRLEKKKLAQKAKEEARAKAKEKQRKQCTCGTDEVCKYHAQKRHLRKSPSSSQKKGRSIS
The data set can be described thus: SPR. For orientation: In SPR one partner is held on a chip, and binding of the other changes the refractive index at the surface.

B1: TPO3 wild-type HRE (GGCGAGGGG) (dsDNA)
DNA 1: TTCTCTGTGCTTGGCGAGGGGTTTACTGGAGCCCAATC
DNA 2: GATTGGGCTCCAGTAAACCCCTCGCCAAGCACAGAGAA
As to B1, binding was characterised by a dissociation constant (Kd) of 2 ± 0.2 nM.

B2: HRE mutant 6 (GGCGAGGCG) (dsDNA)
DNA 1: B1 DNA 1 with G20C
DNA 2: B1 DNA 2 with C19G
B2 displayed a Kd of 38.5 ± 4.5 nM.

B3: HRE mutant 3 (GGCGCGGGG) (dsDNA)
DNA 1: B1 DNA 1 with A17C
DNA 2: B1 DNA 2 with T22G
Consider B3, for which the Kd worked out at 13.6 ± 0.9 nM.

B4: HRE mutant 4 (GGCGAAGGG) (dsDNA)
DNA 1: B1 DNA 1 with G18A
DNA 2: B1 DNA 2 with C21T
On to B4, for which the Kd worked out at 396 ± 51.1 nM. This Kd is about 29-fold higher than that of the molecule before.

B5: HRE mutant 1 (AGCGAGGGG) (dsDNA)
DNA 1: B1 DNA 1 with G13A
DNA 2: B1 DNA 2 with C26T
In turn, B5 yielded a Kd of 1.9 ± 0.3 nM.

B6: HRE mutant 8 (GGCGAGGGA) (dsDNA)
DNA 1: B1 DNA 1 with G21A
DNA 2: B1 DNA 2 with C18T
Consider B6, for which the Kd stood at 119 ± 3.6 nM. Against the preceding molecule, the Kd is about 63-fold higher.

B7: HRE mutant 2 (GGCCAGGGG) (dsDNA)
DNA 1: B1 DNA 1 with G16C
DNA 2: B1 DNA 2 with C23G
Molecule B7 showed a Kd of 4.3 ± 0.3 nM. Against the preceding molecule, the Kd is about 28-fold lower.

B8: HRE mutant 7 (GGCGAGGAG) (dsDNA)
DNA 1: B1 DNA 1 with G20A
DNA 2: B1 DNA 2 with C19T
With B8, the Kd amounted to 6780 ± 865 nM.

B9: HRE mutant 5 (GGCGAGAGG) (dsDNA)
DNA 1: B1 DNA 1 with G19A
DNA 2: B1 DNA 2 with C20T
Molecule B9 displayed a Kd of 21.4 ± 6.1 nM. This Kd is about 320-fold lower than that of the molecule before.
